Experimental data taken from publication PMC6149855, “Improving the Catalytic Property of the Glycoside Hydrolase LXYL-P1–2 by Directed Evolution” (Molecules : A Journal of Synthetic Chemistry and Natural …, 2017).

Test system: [H][C@]12[C@H](OC(=O)c3ccccc3)[C@]3(O)C[C@H](OC(=O)[C@H](O)[C@@H](NC(=O)c4ccccc4)c4ccccc4)C(C)=C([C@@H](O)C(=O)[C@]1(C)[C@@H](O[C@@H]1OC[C@@H](O)[C@H](O)[C@H]1O)C[C@@]1([H])OC[C@@]21OC(C)=O)C3(C)C
Assay: HPLC of 10-deacetyltaxol formation, nonlinear Michaelis–Menten fit
Type: biochemical, Lentinula edodes
Details: XDT 0.039–5.0 mM; other conditions as described previously
Description: HPLC of 10-deacetyltaxol formation, nonlinear Michaelis–Menten fit on LXYL-P1–2

LXYL-P1–2 (Lentinula edodes; T368E)
Km: 0.16 (±0.01) mmol L^−1
Vmax: 3.84 µM/min
kcat: 2.3 ± 0.03 s⁻¹
kcat/Km: 14200 ± 810 M⁻¹ s⁻¹

LXYL-P1–2 (Lentinula edodes)
Km: 0.51 (±0.01) mmol L^−1
Vmax: 8.16 µM/min
kcat: 4.89 ± 0.1 s⁻¹
kcat/Km: 9670 ± 100 M⁻¹ s⁻¹

LXYL-P1–2 (Lentinula edodes; S91D)
Km: 0.17 (±0.01) mmol L^−1
Vmax: 3.15 µM/min
kcat: 1.89 ± 0.04 s⁻¹
kcat/Km: 11300 ± 390 M⁻¹ s⁻¹
